Literature values, collected in publication PMC7365847.
pKd: −log10 of the molar value. Where two headings read alike, the source gives them in different places.

Tests used:
[1] = target: IL-18BP (Homo sapiens) (UniProt O95998)
[2] = target: IL-1Ra (Homo sapiens) (UniProt P18510)
[3] = target: IL-1β (Homo sapiens) (UniProt P01584)
[4] = target: IL-1β (Homo sapiens) (UniProt P01584); remark: listed apart in the source

Chain of IL-1β (Homo sapiens) (P01584 117-269): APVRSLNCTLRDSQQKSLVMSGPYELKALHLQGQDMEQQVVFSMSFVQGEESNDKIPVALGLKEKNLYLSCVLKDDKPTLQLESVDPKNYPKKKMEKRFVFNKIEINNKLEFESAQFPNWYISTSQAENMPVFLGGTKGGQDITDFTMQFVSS
Chain of sIL-1R2/sIL-1R3 complex (P27930 14-398): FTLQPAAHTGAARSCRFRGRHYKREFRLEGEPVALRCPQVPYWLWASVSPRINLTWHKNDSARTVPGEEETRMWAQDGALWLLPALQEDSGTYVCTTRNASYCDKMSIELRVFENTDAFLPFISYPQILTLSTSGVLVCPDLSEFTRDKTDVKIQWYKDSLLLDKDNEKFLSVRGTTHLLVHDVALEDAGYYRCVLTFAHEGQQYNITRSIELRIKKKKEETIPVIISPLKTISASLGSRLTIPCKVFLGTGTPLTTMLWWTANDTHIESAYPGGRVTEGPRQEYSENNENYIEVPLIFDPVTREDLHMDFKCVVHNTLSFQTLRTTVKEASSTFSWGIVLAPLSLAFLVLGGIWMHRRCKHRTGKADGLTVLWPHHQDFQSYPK
Chain of sIL-1R2/sIL-1R3 complex (Q9NPH3 21-570, further chain): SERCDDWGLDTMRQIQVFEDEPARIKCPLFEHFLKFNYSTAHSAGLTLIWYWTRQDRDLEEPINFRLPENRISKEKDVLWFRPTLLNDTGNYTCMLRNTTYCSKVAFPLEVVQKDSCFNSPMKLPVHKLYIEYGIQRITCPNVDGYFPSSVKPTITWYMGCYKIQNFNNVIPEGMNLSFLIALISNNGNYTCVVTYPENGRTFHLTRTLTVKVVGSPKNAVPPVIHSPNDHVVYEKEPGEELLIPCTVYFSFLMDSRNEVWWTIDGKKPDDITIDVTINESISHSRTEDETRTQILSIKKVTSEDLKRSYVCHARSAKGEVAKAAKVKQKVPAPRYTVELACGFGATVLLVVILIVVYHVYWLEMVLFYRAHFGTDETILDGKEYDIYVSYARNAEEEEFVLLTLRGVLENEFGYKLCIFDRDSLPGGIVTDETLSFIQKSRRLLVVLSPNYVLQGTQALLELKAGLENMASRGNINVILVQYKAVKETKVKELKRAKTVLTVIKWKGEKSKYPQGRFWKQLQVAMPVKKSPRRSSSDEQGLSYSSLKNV
Chain of IL-18 (Q14116 37-193): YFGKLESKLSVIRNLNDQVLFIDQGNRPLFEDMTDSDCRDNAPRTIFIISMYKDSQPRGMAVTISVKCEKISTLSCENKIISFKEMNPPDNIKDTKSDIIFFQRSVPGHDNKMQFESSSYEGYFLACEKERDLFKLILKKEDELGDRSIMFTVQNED
Chain of IL-1Ra (Homo sapiens) (P18510 26-177): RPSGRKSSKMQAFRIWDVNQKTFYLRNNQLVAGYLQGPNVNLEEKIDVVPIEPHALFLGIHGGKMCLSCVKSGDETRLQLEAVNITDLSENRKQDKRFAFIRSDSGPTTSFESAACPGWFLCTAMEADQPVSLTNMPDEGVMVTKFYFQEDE
Chain of IL-18BP (Homo sapiens) (O95998 31-194): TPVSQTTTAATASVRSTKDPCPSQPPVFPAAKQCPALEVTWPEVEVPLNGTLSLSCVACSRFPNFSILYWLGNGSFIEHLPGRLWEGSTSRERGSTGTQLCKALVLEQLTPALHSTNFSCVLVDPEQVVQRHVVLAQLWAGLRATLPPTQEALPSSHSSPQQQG

In the case of IL-18 (from UniProt Q14116), the pKd [1] is given as 9.40.

In the case of sIL-1R2 (from UniProt P27930), the pKd [2] is given as 4.60 and the pKd [3] is given as 8.57.

For “sIL-1R2/sIL-1R3 complex (from UniProt P27930)”, the pKd [4] is given as 11.25.
